Reference: US20050148500A1, “Dopaminergic stimulatory factor” (priority 2001, published 2005)
“Also recorded” adds a separate entry of the source.

System: MN9D cells
Test: Dopamine content of MN9D cells in monolayer culture after incubation with protein (HPLC)
Type: cell-based, mouse
Description: […] The MN9D cells on each plate were then collected in 10 ml of CMF, transferred to 15 ml centrifuge tubes and centrifuged at 1000×g for 5 min. The supernatant was removed and 600 μl of 0.5 N perchloric acid was added to the cell pellet which was then sonicated on ice for 10-15 s. The cell extract was centrifuged at 4000×g for 30 min and the supernatant stored at −80° C. for subsequent high pressure liquid chromatography (HPLC) analysis of MN9D cell dopamine content. The pellet was stored at −20° C. for subsequent protein analysis.
A second experiment was then conducted to determine whether this effect was due to a change in the doubling time (24 h) of the MN9D cells with increased cell production or was the result of an increase in cellular dopamine. […] Cells were removed from the plates and cell numbers determined by counting in a hematocytometer. Dopamine content was determined by HPLC analysis. The MN9D cells can be differentiated by exposure to either sodium butyrate or dibutryl cyclic adenosine monophosphate for 5 days (Choi et al., 1991) resulting in a reduction in the rate of cell division and the production of extensive cellular processes.
Experiment involved 24 hour incubation with X61 protein(s). X61 protein(s) was incubated with 100 microliter of concentrated monoclonal antibody against 14-3-3 (anti-14-3-3) obtained from Santa Cruz Biotechnology for 15 minutes at room temperature prior to addition to MN9D cells grown on 6-well plates. Data given as ng dopamine per well, n=3. The reason for the lower amounts of dopamine seen in this experiment as compared to that in Tables 2 and 3 is related to differences in time of exposure and plate size. X61 protein(s) were also preincubated with an antibody against neuronal nuclear protein as a control. This antibody had no effect on X61 protein(s) activity.
After this period, the MN9D cells on each plate are collected in 10 ml of CMF, transferred to 15 ml centrifuge tubes and centrifuged at 1000×g for 5 min. The supernatant is removed and 600 μl of 0.5N perchloric acid is added to the cell pellet which is then sonicated on ice for 10-15 seconds. The material obtained is centrifuged at 4000×g for 30 minutes and the supernatant stored at −80° C. MN9D cell DA content is determined by reverse phase high pressure liquid chromatography with electrochemical detection (HPLC-ED) as previously described (Heller et al., 1993). The pellet is stored at −20° C. for subsequent protein analysis.

B1: transforming growth factor β2 (protein, UniProt P61812 303-414, looked up)
Transforming growth factor …: ALDAAYCFRNVQDNCCLRPLYIDFKRDLGWKWIHEPKGYNANFCAGACPYLWSSDTQHSRVLSLYNTINPEASASPCCVSQDLEPLTILYYIGKTPKIEQLSNMIVKSCKCS
- effect on MN9D DA levels: without effect

B2: glial derived neurotrophic factor (protein, UniProt P39905 78-211, looked up)
Glial cell line-derived …: SPDKQMAVLPRRERNRQAAAANPENSRGKGRRGQRGKNRGCVLTAIHLNVTDLGLGYETKEELIFRYCSGSCDAAETTYDKILKNLSRNRRLVSDKVGQACCRPIAFDDDLSFLDDNLVYHILRKHSAKRCGCI
- effect on MN9D dopamine levels versus controls (1 ng/ml for 5 days): significantly lower; also recorded: significant decrease
- MN9D DA levels (1 ng/ml for 5 days, control 467±18.4): 356.0±14.4 ng/plate

B3: ciliary neurotrophic factor (protein, UniProt P26441 1-200, looked up)
Ciliary neurotrophic factor: MAFTEHSPLTPHRRDLCSRSIWLARKIRSDLTALTESYVKHQGLNKNINLDSADGMPVASTDQWSELTEAERLQENLQAYRTFHVLLARLLEDQQVHFTPTEGDFHQAIHTLLLQVAAFAYQIEELMILLEYKIPRNEADGMPINVGDGGLFEKKLWGLKVLQELSQWTVRSIHDLRFISSHQTGIPARGSHYIANNKKM
- effect on MN9D dopamine levels (100 ng/ml, 24 hour treatment): no significant effect
- MN9D DA levels (100 ng/ml, 24 hour treatment, controls 157.8±3.3): 156.5±10.9 ng/plate
